Here are results for one molecule from publication PMC7849368 (Genes & Development, 2021).

The target in this assay is T1, Esc2, purified, as used in microscale thermophoresis (budding yeast, UniProt Q06340 1-456).
T1 sequence: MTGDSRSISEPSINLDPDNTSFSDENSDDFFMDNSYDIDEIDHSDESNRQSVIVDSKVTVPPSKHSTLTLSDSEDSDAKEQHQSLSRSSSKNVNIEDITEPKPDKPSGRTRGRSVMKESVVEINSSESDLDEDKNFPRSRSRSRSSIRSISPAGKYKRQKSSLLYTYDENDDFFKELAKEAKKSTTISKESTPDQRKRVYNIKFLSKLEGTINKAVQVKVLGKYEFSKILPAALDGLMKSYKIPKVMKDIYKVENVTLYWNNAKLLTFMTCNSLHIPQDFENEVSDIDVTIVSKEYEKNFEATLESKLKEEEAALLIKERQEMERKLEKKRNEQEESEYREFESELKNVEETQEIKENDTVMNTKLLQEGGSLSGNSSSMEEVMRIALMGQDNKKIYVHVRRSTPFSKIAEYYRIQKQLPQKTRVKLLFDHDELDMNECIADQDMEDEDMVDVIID
The assay is described as follows: MST.

Broadly, the Kd is the equilibrium constant for the complex coming apart. A low value points to higher affinity.

B1: Ubc9, purified (enzyme)
chain: MSSLCLQRLQEERKKWRKDHPFGFYAKPVKKADGSMDLQKWEAGIPGKEGTNWAGGVYPITVEYPNEYPSKPPKVKFPAGFYHPNVYPSGTICLSILNEDQDWRPAITLKQIVLGVQDLLDSPNPNSPAQEPAWRSFSRNKAEYDKKVLLQAKQYSK
modifications: RED-tris-NTA dye on the His tag (MST only)
Take B1: the Kd stood at 372 nM.
